Four sequences from the supplement of paper PMC5998384 can be followed below.

Data set [1] has as its system HeLa Kyoto. Put plainly: solubility in G1/S (NP-40 vs SDS abundance) (log2 ratio); higher = more soluble. The following applies: cell cycle stage: G1/S.
Data set [2] has as its system HeLa Kyoto. Put plainly: melting temperature (median over replicates), in situ; higher = more thermally stable.
For data set [3], the system named is HeLa Kyoto. Put plainly: solubility change mitosis vs G1/S (difference of NP-40 vs SDS log2 ratios) (log2 ratio difference); higher = more soluble in mitosis.
Data set [4] relates to HeLa Kyoto. In words: thermal stability score vs G1/S (z-score of summed log2 fold changes over temperatures); higher = more thermally stable than in G1/S.
The mark [5] stands for this setting: cell cycle stage: early G1 (4.5 h after nocodazole release).
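Throughout, for melting temperature (median over replicates), in situ: HeLa Kyoto cells synchronized by double thymidine or nocodazole block, proteins quantified by TMT10plex mass spectrometry, three independent biological replicates.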
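Throughout, for solubility change mitosis vs G1/S (difference of NP-40 vs SDS log2 ratios): synchronized HeLa Kyoto cells (double thymidine block for G1/S, nocodazole release for mitosis), protein amounts in NP-40 versus SDS lysates quantified by mass spectrometry, three biological replicates.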
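Throughout, for solubility in G1/S (NP-40 vs SDS abundance): HeLa Kyoto cells arrested at G1/S by double thymidine block, proteins quantified by TMT10plex mass spectrometry in mild NP-40 versus SDS extracts, three biological replicates.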
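Throughout, for thermal stability score vs G1/S (z-score of summed log2 fold changes over temperatures): synchronized HeLa Kyoto cells, proteins quantified by TMT10plex mass spectrometry, three biological replicates, mitosis taken 0.5 h after nocodazole release, G1/S directly after double thymidine block.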

Turning to “MAGELADKKDRDASPSKEERKRSRTPDRERDRDRDRKSSPSKDRKRHRSRDRRRGGSRSRSRSRSKSAERERRHKERERDKERDRNKKDRDRDKDGHRRDKDRKRSSLSPGRGKDFKSRKDRDSKKDEEDEHGDKKPKAQPLSLEELLAKKKAEEEAEAKPKFLSKAEREAEALKRRQQEVEERQRMLEEERKKRKQFQDLGRKMLEDPQERERRERRERMERETNGNEDEEGRQKIREEKDKSKELHAIKERYLGGIKKRRRTRHLNDRKFVFEWDASEDTSIDYNPLYKERHQVQLLGRGFIAGIDLKQQKREQSRFYGDLMEKRRTLEEKEQEEARLRKLRKKEAKQRWDDRHWSQKKLDEMTDRDWRIFREDYSITTKGGKIPNPIRSWKDSSLPPHILEVIDKCGYKEPTPIQRQAIPIGLQNRDIIGVAETGSGKTAAFLIPLLVWITTLPKIDRIEESDQGPYAIILAPTRELAQQIEEETIKFGKPLGIRTVAVIGGISREDQGFRLRMGCEIVIATPGRLIDVLENRYLVLSRCTYVVLDEADRMIDMGFEPDVQKILEHMPVSNQKPDTDEAEDPEKMLANFESGKHKYRQTVMFTATMPPAVERLARSYLRRPAVVYIGSAGKPHERVEQKVFLMSESEKRKKLLAILEQGFDPPIIIFVNQKKGCDVLAKSLEKMGYNACTLHGGKGQEQREFALSNLKAGAKDILVATDVAGRGIDIQDVSMVVNYDMAKNIEDYIHRIGRTGRAGKSGVAITFLTKEDSAVFYELKQAILESPVSSCPPELANHPDAQHKPGTILTKKRREETIFA [DDX23]”, in the data set on HeLa Kyoto [1], the “solubility in G1/S (log2)” value was -1.02. Also, the results for the melting temperature in the data set with HeLa Kyoto [2] (cell cycle stage: G1/S) and with HeLa Kyoto [2] (cell cycle stage: mitosis) were 48.8 °C and 50.4 °C, respectively. Moreover, the “solubility change mitosis (log2)” value with HeLa Kyoto [3] came to 0.24. For the same sequence, the thermal stability score in the data set on HeLa Kyoto [4] (setting [5]) came out at 1.14; in the data set on HeLa Kyoto [4] (cell cycle stage: mitosis), 3.64.
Turning to “MAAGKSGGSAGEITFLEALARSESKRDGGFKNNWSFDHEEESEGDTDKDGTNLLSVDEDEDSETSKGKKLNRRSEIVANSSGEFILKTYVRRNKSESFKTLKGNPIGLNMLSNNKKLSENTQNTSLCSGTVVHGRRFHHAHAQIPVVKTAAQSSLDRKERKEYPPHVQKVEINPVRLSRLQGVERIMKKTEESESQVEPEIKRKVQQKRHCSTYQPTPPLSPASKKCLTHLEDLQRNCRQAITLNESTGPLLRTSIHQNSGGQKSQNTGLTTKKFYGNNVEKVPIDIIVNCDDSKHTYLQTNGKVILPGAKIPKITNLKERKTSLSDLNDPIILSSDDDDDNDRTNRRESISPQPADSACSSPAPSTGKVEAALNENTCRAERELRSIPEDSELNTVTLPRKARMKDQFGNSIINTPLKRRKVFSQEPPDALALSCQSSFDSVILNCRSIRVGTLFRLLIEPVIFCLDFIKIQLDEPDHDPVEIILNTSDLTKCEWCNVRKLPVVFLQAIPAVYQKLSIQLQMNKEDKVWNDCKGVNKLTNLEEQYIILIFQNGLDPPANMVFESIINEIGIKNNISNFFAKIPFEEANGRLVACTRTYEESIKGSCGQKENKIKTVSFESKIQLRSKQEFQFFDEEEETGENHTIFIGPVEKLIVYPPPPAKGGISVTNEDLHCLNEGEFLNDVIIDFYLKYLVLEKLKKEDADRIHIFSSFFYKRLNQRERRNHETTNLSIQQKRHGRVKTWTRHVDIFEKDFIFVPLNEAAHWFLAVVCFPGLEKPKYEPNPHYHENAVIQKCSTVEDSCISSSASEMESCSQNSSAKPVIKKMLNKKHCIAVIDSNPGQEESDPRYKRNICSVKYSVKKINHTASENEEFNKGESTSQKVADRTKSENGLQNESLSSTHHTDGLSKIRLNYSDESPEAGKMLEDELVDFSEDQDNQDDSSDDGFLADDNCSSEIGQWHLKPTICKQPCILLMDSLRGPSRSNVVKILREYLEVEWEVKKGSKRSFSKDVMKGSNPKVPQQNNFSDCGVYVLQYVESFFENPILSFELPMNLANWFPPPRMRTKREEIRNIILKLQEDQSKEKRKHKDTYSTEAPLGEGTEQYVNSISD [SENP6]”, in the data set on HeLa Kyoto [1], the “solubility in G1/S (log2)” value was -0.261. Moreover, the values for the melting temperature in the data set with HeLa Kyoto [2] (cell cycle stage: G1/S) and in the data set on HeLa Kyoto [2] (cell cycle stage: mitosis) were 51.8 °C and 52.5 °C, respectively. For the same sequence, the “solubility change mitosis (log2)” value in the data set with HeLa Kyoto [3] came to 0.144. Besides, the results for the thermal stability score in the data set on HeLa Kyoto [4] (setting [5]) and in the data set with HeLa Kyoto [4] (cell cycle stage: mitosis) were -0.65 and 0.269, respectively.
With “MSWFVDLAGKAEDLLNRVDQGAATALSRKDNASNIYSKNTDYTELHQQNTDLIYQTGPKSTYISSAADNIRNQKATILAGTANVKVGSRTPVEASHPVENASVPRPSSHFVRRKKSEPDDELLFDFLNSSQKEPTGRVEIRKEKGKTPVFQSSQTSSVSSVNPSVTTIKTIEENSFGSQTHEAASNSDSSHEGQEESSKENVSSNAACPDHTPTPNDDGKSHELSNLRLENQLLRNEVQSLNQEMASLLQRSKETQEELNKARARVEKWNADHSKSDRMTRGLRAQVDDLTEAVAAKDSQLAVLKVRLQEADQLLSTRTEALEALQSEKSRIMQDQSEGNSLQNQALQTFQERLHEADATLKREQESYKQMQSEFAARLNKVEMERQNLAEAITLAERKYSDEKKRVDELQQQVKLYKLNLESSKQELIDYKQKATRILQSKEKLINSLKEGSGFEGLDSSTASSMELEELRHEKEMQREEIQKLMGQIHQLRSELQDMEAQQVNEAESAREQLQDLHDQIAGQKASKQELETELERLKQEFHYIEEDLYRTKNTLQSRIKDRDEEIQKLRNQLTNKTLSNSSQSELENRLHQLTETLIQKQTMLESLSTEKNSLVFQLERLEQQMNSASGSSSNGSSINMSGIDNGEGTRLRNVPVLFNDTETNLAGMYGKVRKAASSIDQFSIRLGIFLRRYPIARVFVIIYMALLHLWVMIVLLTYTPEMHHDQPYGK [GOLGA5]”, the “solubility in G1/S (log2)” value with HeLa Kyoto [1] was 0.284. Besides, the melting temperature in the data set with HeLa Kyoto [2] (cell cycle stage: G1/S) amounted to 52.7 °C; in the data set on HeLa Kyoto [2] (cell cycle stage: mitosis), 53 °C. Also, the “solubility change mitosis (log2)” value in the data set with HeLa Kyoto [3] was -0.148. Besides, the thermal stability score came out at 1.32 in the data set with HeLa Kyoto [4] (setting [5]) and 2.34 in the data set on HeLa Kyoto [4] (cell cycle stage: mitosis).
On to “MGSSKKVTLSVLSREQSEGVGARVRRSIGRPELKNLDPFLLFDEFKGGRPGGFPDHPHRGFETVSYLLEGGSMAHEDFCGHTGKMNPGDLQWMTAGRGILHAEMPCSEEPAHGLQLWVNLRSSEKMVEPQYQELKSEEIPKPSKDGVTVAVISGEALGIKSKVYTRTPTLYLDFKLDPGAKHSQPIPKGWTSFIYTISGDVYIGPDDAQQKIEPHHTAVLGEGDSVQVENKDPKRSHFVLIAGEPLREPVIQHGPFVMNTNEEISQAILDFRNAKNGFERAKTWKSKIGN [PIR]”, for which the “solubility in G1/S (log2)” value in the data set with HeLa Kyoto [1] turned out to be 0.288. Also, the figures for the melting temperature in the data set with HeLa Kyoto [2] (cell cycle stage: G1/S) and with HeLa Kyoto [2] (cell cycle stage: mitosis) were 51.8 °C and 51.6 °C, respectively. Also, the “solubility change mitosis (log2)” value in the data set on HeLa Kyoto [3] was -0.0437. The thermal stability score in the data set with HeLa Kyoto [4] (setting [5]) is -1.49; in the data set on HeLa Kyoto [4] (cell cycle stage: mitosis), -1.89.
